System: T1, CC(C)CCC[C@@H](C)[C@H]1CC[C@H]2[C@@H]3CC=C4C[C@@H](O)CC[C@]4(C)[C@H]3CC[C@]12C
T1 construct: Met-Ala (from the NcoI cloning site) in front of Arg25 (N); made in house; host or cells: E. coli TOPP3 carrying pJL/H7α1.5 (ATCC 69401)
Experiment: Reconstitution assay of cholesterol 7α-hydroxylase activity at different concentrations of cholesterol (Lineweaver-Burke plot)
Type: biochemical, human
Settings: other: purified truncated enzyme reconstituted with NADPH-cytochrome P450 reductase and phospholipid, 1 mM NADPH, 37° C., 20 minutes, pH 7.4
Method: FIG. 10 illustrates a Lineweaver-Burke plot of activities of truncated human and truncated rat cholesterol 7α-hydroxylase in E. coli. Truncated CYP7 activity was measured using a reconstitution assay, such as that described in Example 10, at different concentrations of cholesterol, as indicated. Linear regression was used to draw the line.
The truncated enzyme was purified from recombinant bacteria. Purification methodology is described by Li and Chiang, J. Biol. Chem. 266 (29): 19186 (1991), the contents of which are expressly incorporated by reference herein in its entirety. The activity of CYP7, in both the presence and absence of the compound, is measured as described by Chiang, Meth. Enzym. 206: 483 (1991), the contents of which is expressly incorporated by reference herein in its entirety. […]
The Km and Vmax for cholesterol have been determined in comparison with the truncated, bacterially expressed rat CYP7 enzyme (FIG. 10). […]

Question: For “truncated human cholesterol 7α-hydroxylase (CYP7), amino acids 1 to 24 of the membrane anchor region deleted, SEQ ID NO:5, expressed in E. coli TOPP3-pJL/H7α1.5 (Homo sapiens)”, which Km is on record?
Answer: 5.85 µM

Question: What about the Vmax of the same substance?
Answer: 0.13 nmol/min
